Measured values: paper PMC7391724 (Scientific Reports, 2020)

What was measured:
[1] = Plasma protein binding (ultrafiltration), across all species; format: in vitro ADME; conditions: rat, mouse, dog, human, 37 °C, read-out: plasma protein binding, range across all species
Method: (§1) Plasma ultrafiltration was used for determination of free and protein bound fractions of EC2629 and EC2491. Samples were extracted and analyzed using fit-for-purpose bioanalytical methods. Briefly, 500 nM EC2629 or EC2491 was spiked into plasma maintained at 37 °C prior to plasma ultrafiltration. Plasma spiked with 500 nM EC2629 or EC2491 was allowed to equilibrate at 37 °C for 30 min prior to processing. Next, 50 μL of plasma was transferred to a clean 1.2 mL plate stored at 2–8 °C for further processing. The remaining plasma sample volumes were transferred to 30 Kd MWCO PES filter to generate plasma ultrafiltrate by centrifugation at 10,000×g for 20 min. After which, 50 μL of each plasma ultrafiltrate was transferred to separate wells in a clean 1.2 mL plate. To all spiked plasma samples, 50 μL of blank plasma ultrafiltrate was added. 50 μL of blank plasma was added to all experimental ultrafiltrate samples. These blank matrix additions normalized the matrix effects for protein binding determination. Samples were then extracted using protein precipitation with a 3:1 ratio of acetonitrile after addition of internal standard. The supernatant transferred to a new plate, evaporated, and reconstituted prior to LC–MS/MS analysis.

[2] = Plasma protein binding (ultrafiltration), rat; format: in vitro ADME; conditions: 37 °C
Method: as §1

[3] = system: KB tumor xenografts; assay: KB tumor xenograft in nu/nu mice; format: in vivo; conditions: EC2629 0.3 µmol/kg iv SIW x 2 weeks
Method: Four- to eight-week-old female nu/nu mice and rats (Harlan Sprague Dawley, Inc.), were maintained on a standard 12-h light–dark cycle and fed ad libitum with a low-folate chow (Harlan Teklad diet #TD.01013, Madison, WI) for the duration of dosing and 1 week post dosing schedule. Mice and rats were then switched to Teklad Global 18% Rodent diet (Harlan Teklad diet #2018S) during the monitoring phase of the study. Parental KB, KB-CR2000 or KB-PR10 cells (1 × 10^6/100 µL per nu/nu mouse and 5 × 10^6/200 µL per nu/nu rat) were injected into the subcutis of the dorsal medial area. Mice were divided into groups of 5 and rats in groups of 3–4, and freshly prepared test articles were injected through the lateral tail vein under sterile conditions in a volume of 200 μL/20 g of PBS. In mice, intravenous treatments typically initiated on day 7 PTI when KB tumors were approximately 111–168 mm^3 in volume, on day 5 PTI when the KB-PR tumors were about 205–243 mm^3, and on day 6 PTI when the KB-CR tumors were around 98 to 168 mm^3. Treatments in rats were started on day 10 PTI when KB tumors were approximately 412–704 mm^3 in volume.
Animals in the control groups received no treatment. Growth of each subcutaneous tumor was followed by measuring the tumor 3 times per week during treatment and twice per week thereafter, until a maximum volume of 1,500 mm^3 for mice and 15,000 mm^3 for rats were reached. Tumors were measured in two perpendicular directions using Vernier calipers, and their volumes were calculated as V = 0.5 × L × W^2, where L = measurement of longest axis in mm and W = measurement of axis perpendicular to L in mm[16]. As a general measure of gross toxicity, changes in body weights were determined on the same schedule as tumor volume measurements. Survival of animals was monitored daily. Animals that were moribund (or unable to reach food or water) were euthanized by CO2 asphyxiation. Individual tumor response endpoints were reported in terms of tumor volume change. A partial response (PR) was defined as volume regression > 50% but with measurable tumor (> 2 mm^3) remaining at all times. Complete response (CR) was defined as a disappearance of measurable tumor mass (< 2 mm^3) at some point within 90 days after tumor implantation. Cures were defined as CRs without tumor regrowth within the 90-day study time frame.

[4] = Whole blood stability, mouse; format: in vitro ADME; conditions: 500 nM, 37 °C, two hours, mouse blood
Method: (§2) Whole blood and plasma stability were determined for EC2629 and EC2491 at a concentration of 500 nM. Samples were extracted and analyzed using fit-for-purpose bioanalytical methods. EC2629 or EC2491 was spiked into 1 mL whole blood or plasma maintained at 37 °C for 30 min prior to use . Fifty µl aliquots were then removed at defined timepoints and stored in a 1.2 mL extraction plate prior to analysis. Samples were then extracted using protein precipitation with a 3:1 ratio of acetonitrile after addition of internal standard. The supernatant was then transferred to a new plate, evaporated, and reconstituted prior to LC–MS/MS analysis.

[5] = Plasma stability, dog; format: in vitro ADME; conditions: 500 nM, 37 °C, 2 h
Method: as §2

[6] = Plasma stability, mouse; format: in vitro ADME; conditions: 500 nM, 37 °C, 2 h
Method: as §2

[7] = Plasma protein binding (ultrafiltration), mouse; format: in vitro ADME; conditions: 37 °C
Method: as §1

[8] = Whole blood stability, dog; format: in vitro ADME; conditions: 37 °C, after two hours, read-out: percent remaining in whole blood
Method: as §2

[9] = Plasma stability, human; format: in vitro ADME; conditions: 500 nM, 37 °C, 2 h
Method: as §2

[10] = Whole blood stability, human; format: in vitro ADME; conditions: 500 nM, 37 °C, two hours, human blood
Method: as §2

C=C1C[C@H]2C=Nc3cc(OCCCCCOc4cc(N)c(C(=O)N5CC(=C)C[C@H]5C5OCCN5C(=O)OCC(C)(C)SSCCC(=O)NCCNC(=O)CCOCCOCCOCCOCCNC(=O)CCN5C(=O)CC(SC[C@H](NC(=O)[C@H](CC(=O)O)NC(=O)[C@H](CC(=O)O)NC(=O)[C@H](CCCNC(=N)N)NC(=O)[C@H](CC(=O)O)NC(=O)CC[C@H](NC(=O)c6ccc(NCc7cnc8nc(N)[nH]c(=O)c8n7)cc6)C(=O)O)C(=O)O)C5=O)cc4OC)c(OC)cc3C(=O)N2C1 (stereo partly shown) [EC2629]
fraction unbound at 30 min, 500 nM [1]: 0.026 to 0.128 | fraction unbound at 30 min, 500 nM [2]: 0.026 | body weight change [3]: did not lose any significant weight | whole blood stability [4]: no observed degradation | plasma stability [5]: stable | plasma stability [6]: stable | fraction unbound at 30 min, 500 nM [7]: 0.051 | remaining at 2 h, 500 nM [8]: 75.8% | plasma stability [9]: stable | whole blood stability [10]: no observed degradation
